In the supplement of paper PMC3353916 one finds percent infected data, which are given here for 11 substances.

For this data set, the system named is Sindbis virus TE/5'2J-GFP. The data set is described as follows: percent infected (GFP+ in RFP+ ISG-expressing cells); higher = more infection (less antiviral activity). On the procedure:
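Confirmatory testing of 87 ISGs. Triplicate wells of BHK/HA-Zeo (control) or BHK/NZAP-Zeo (ZAP) cells were transduced with lentiviruses co-expressing a human ISG plus TagRFP, then infected 48 h later with SINV TE/5'2J-GFP (moi 5). The % GFP+ cells among RFP+ cells was measured by flow cytometry at 8 h post infection. Fluc lentivirus served as control. Three independent experiments.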

[1] abbreviates: experiment: confirmatory screen 1, BHK/HA-Zeo (control).
[2] abbreviates: experiment: confirmatory screen 1, BHK/NZAP-Zeo (ZAP).
The mark [3] stands for this setting: experiment: confirmatory screen 2, BHK/HA-Zeo (control).
Setting [4] is: experiment: confirmatory screen 2, BHK/NZAP-Zeo (ZAP).
Setting [5] is: experiment: confirmatory screen 3, BHK/HA-Zeo (control).
The mark [6] stands for this setting: experiment: confirmatory screen 3, BHK/NZAP-Zeo (ZAP).

± gives the standard deviation of the averaged measurements.
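Note: Interferon-defective BHK-21 derivatives, ZAP line overexpressing the rat ZAP N-terminal zinc finger domain fused to Zeocin resistance, GFP scored within live singlet TagRFP+ cells.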

Take “MELRSYQWEVIMPALEGKNIIIWLPTGAGKTRAAAYVAKRHLETVDGAKVVVLVNRVHLVTQHGEEFRRMLDGRWTVTTLSGDMGPRAGFGHLARCHDLLICTAELLQMALTSPEEEEHVELTVFSLIVVDECHHTHKDTVYNVIMSQYLELKLQRAQPLPQVLGLTASPGTGGASKLDGAINHVLQLCANLDTWCIMSPQNCCPQLQEHSQQPCKQYNLCHRRSQDPFGDLLKKLMDQIHDHLEMPELSRKFGTQMYEQQVVKLSEAAALAGLQEQRVYALHLRRYNDALLIHDTVRAVDALAALQDFYHREHVTKTQILCAERRLLALFDDRKNELAHLATHGPENPKLEMLEKILQRQFSSSNSPRGIIFTRTRQSAHSLLLWLQQQQGLQTVDIRAQLLIGAGNSSQSTHMTQRDQQEVIQKFQDGTLNLLVATSVAEEGLDIPHCNVVVRYGLLTNEISMVQARGRARADQSVYAFVATEGSRELKRELINEALETLMEQAVAAVQKMDQAEYQAKIRDLQQAALTKRAAQAAQRENQRQQFPVEHVQLLCINCMVAVGHGSDLRKVEGTHHVNVNPNFSNYYNVSRDPVVINKVFKDWKPGGVISCRNCGEVWGLQMIYKSVKLPVLKVRSMLLETPQGRIQAKKWSRVPFSVPDFDFLQHCAENLSDLSLD [DHX58]”: the percent infected is 95 ± 1.5% under setting [1]; 75.7 ± 2.1% under setting [2]; 95.81 ± 0.69% under setting [3]; 95.7 ± 0.2% under setting [4]; 94.51 ± 0.49% under setting [5]; 94.61 ± 0.18% under setting [6].
In turn, “MAPEINLPGPMSLIDNTKGQLVVNPEALKILSAITQPVVVVAIVGLYRTGKSYLMNKLAGKKNGFSLGSTVKSHTKGIWMWCVPHPKKPEHTLVLLDTEGLGDIEKGDNENDSWIFALAILLSSTFVYNSMGTINQQAMDQLHYVTELTDRIKANSSPGNNSVDDSADFVSFFPAFVWTLRDFTLELEVDGEPITADDYLELSLKLRKGTDKKSKSFNDPRLCIRKFFPKRKCFVFDWPAPKKYLAHLEQLKEEELNPDFIEQVAEFCSYILSHSNVKTLSGGIPVNGPRLESLVLTYVNAISSGDLPCMENAVLALAQIENSAAVEKAIAHYEQQMGQKVQLPTETLQELLDLHRDSEREAIEVFMKNSFKDVDQMFQRKLGAQLEARRDDFCKQNSKASSDCCMALLQDIFGPLEEDVKQGTFSKPGGYRLFTQKLQELKNKYYQVPRKGIQAKEVLKKYLESKEDVADALLQTDQSLSEKEKAIEVERIKAESAEAAKKMLEEIQKKNEEMMEQKEKSYQEHVKQLTEKMERDRAQLMAEQEKTLALKLQEQERLLKEGFENESKRLQKDIWDIQMRSKSLEPICNIL [GBP2]” yielded a percent infected under setting [1] of 96.3 ± 0.94%; a percent infected under setting [2] of 80.8 ± 0.62%; a percent infected under setting [3] of 94.84 ± 0.44%; a percent infected under setting [4] of 95.94 ± 0.23%; a percent infected under setting [5] of 93.28 ± 0.57%; a percent infected under setting [6] of 94.23 ± 0.41%.
In turn, “MATERSRSAMDSPVPASMFAPEPSSPGAARAAAAAARLHGGFDSDCSEDGEALNGEPELDLTSKLVLVSPTSEQYDSLLRQMWERMDEGCGETIYVIGQGSDGTEYGLSEADMEASYATVKSMAEQIEADVILLRERQEAGGRVRDYLVRKRVGDNDFLEVRVAVVGNVDAGKSTLLGVLTHGELDNGRGFARQKLFRHKHEIESGRTSSVGNDILGFDSEGNVVNKPDSHGGSLEWTKICEKSTKVITFIDLAGHEKYLKTTVFGMTGHLPDFCMLMVGSNAGIVGMTKEHLGLALALNVPVFVVVTKIDMCPANILQETLKLLQRLLKSPGCRKIPVLVQSKDDVIVTASNFSSERMCPIFQISNVTGENLDLLKMFLNLLSPRTSYREEEPAEFQIDDTYSVPGVGTVVSGTTLRGLIKLNDTLLLGPDPLGNFLSIAVKSIHRKRMPVKEVRGGQTASFALKKIKRSSIRKGMVMVSPRLNPQASWEFEAEILVLHHPTTISPRYQAMVHCGSIRQTATILSMDKDCLRTGDKATVHFRFIKTPEYLHIDQRLVFREGRTKAVGTITKLLQTTNNSPMNSKPQQIKMQSTKKGPLTKRDEGGPSGGPAVGAPPPGDEASSVGAGQPAASSNLQPQPKPSSGGRRRGGQRHKVKSQGACVTPASGC [GTPBP1]” registered a percent infected under setting [1] of 93.61 ± 0.15%; a percent infected under setting [2] of 64.4 ± 7.3%; a percent infected under setting [3] of 97.42 ± 0.24%; a percent infected under setting [4] of 96.28 ± 0.23%; a percent infected under setting [5] of 88.74 ± 0.67%; a percent infected under setting [6] of 90.6 ± 0.93%.
Turning to “MKTFTWTLGVLFFLLVDTGHCRGGQFKIKKINQRRYPRATDGKEEAKKCAYTFLVPEQRITGPICVNTKGQDASTIKDMITRMDLENLKDVLSRQKREIDVLQLVVDVDGNIVNEVKLLRKESRNMNSRVTQLYMQLLHEIIRKRDNSLELSQLENKILNVTTEMLKMATRYRELEVKYASLTDLVNNQSVMITLLEEQCLRIFSRQDTHVSPPLVQVVPQHIPNSQQYTPGLLGGNEIQRDPGYPRDLMPPPDLATSPTKSPFKIPPVTFINEGPFKDCQQAKEAGHSVSGIYMIKPENSNGPMQLWCENSLDPGGWTVIQKRTDGSVNFFRNWENYKKGFGNIDGEYWLGLENIYMLSNQDNYKLLIELEDWSDKKVYAEYSSFRLEPESEFYRLRLGTYQGNAGDSMMWHNGKQFTTLDRDKDMYAGNCAHFHKGGWWYNACAHSNLNGVWYRGGHYRSKHQDGIFWAEYRGGSYSLRAVQMMIKPID [ANGPTL1]”, the percent infected was 94.8 ± 1.7% under setting [1]; 76.2 ± 1.6% under setting [2]; 95.66 ± 0.28% under setting [3]; 94.3 ± 2.2% under setting [4]; 94.73 ± 0.38% under setting [5]; 94.71 ± 0.28% under setting [6].
For “MALLLALSLLVLWTSPAPTLSGTNDAEDCCLSVTQKPIPGYIVRNFHYLLIKDGCRVPAVVFTTLRGRQLCAPPDQPWVERIIQRLQRTSAKMKRRSS [CCL19]”, the percent infected came to 95.7 ± 1.2% under setting [1]; 81.5 ± 1.8% under setting [2]; 95.5 ± 0.73% under setting [3]; 95.12 ± 0.1% under setting [4]; 92.83 ± 0.53% under setting [5]; 92.52 ± 0.47% under setting [6].
With “MSSAIERKSLDPSEEPVDEVLQIPPSLLTCGGCQQNIGDRYFLKAIDQYWHEDCLSCDLCGCRLGEVGRRLYYKLGRKLCRRDYLRLFGQDGLCASCDKRIRAYEMTMRVKDKVYHLECFKCAACQKHFCVGDRYLLINSDIVCEQDIYEWTKINGMI [LMO2]”, the percent infected was 95.7 ± 1.2% under setting [1]; 86.1 ± 1.6% under setting [2]; 95.94 ± 0.44% under setting [3]; 94.18 ± 0.17% under setting [4]; 92.69 ± 0.33% under setting [5]; 92.61 ± 0.82% under setting [6].
For the substance “MALAPERAAPRVLFGEWLLGEISSGCYEGLQWLDEARTCFRVPWKHFARKDLSEADARIFKAWAVARGRWPPSSRGGGPPPEAETAERAGWKTNFRCALRSTRRFVMLRDNSGDPADPHKVYALSRELCWREGPGTDQTEAEAPAAVPPPQGGPPGPFLAHTHAGLQAPGPLPAPAGDKGDLLLQAVQQSCLADHLLTASWGADPVPTKAPGEGQEGLPLTGACAGGPGLPAGELYGWAVETTPSPGPQPAALTTGEAAAPESPHQAEPYLSPSPSACTAVQEPSPGALDVTIMYKGRTVLQKVVGHPSCTFLYGPPDPAVRATDPQQVAFPSPAELPDQKQLRYTEELLRHVAPGLHLELRGPQLWARRMGKCKVYWEVGGPPGSASPSTPACLLPRNCDTPIFDFRVFFQELVEFRARQRRGSPRYTIYLGFGQDLSAGRPKEKSLVLVKLEPWLCRVHLEGTQREGVSSLDSSSLSLCLSSANSLYDDIECFLMELEQPA [IRF7]”, the percent infected reads like this: under setting [1], 72 ± 5.6%; under setting [2], 7.66 ± 2.9%; under setting [3], 95.59 ± 0.13%; under setting [4], 92 ± 0.75%; under setting [5], 69.3 ± 3.4%; under setting [6], 32.8 ± 18%.
Consider PRIC285, for which the percent infected stood at 94.6 ± 2.5% under setting [1]; 53.7 ± 6.2% under setting [2]; 96.59 ± 0.24% under setting [3]; 95.01 ± 0.88% under setting [4]; 83.7 ± 1.5% under setting [5]; 87.13 ± 0.73% under setting [6].
For ISG20, the percent infected by setting is: under setting [1], 95.82 ± 0.88%; under setting [2], 73.1 ± 2.4%; under setting [3], 96.88 ± 0.17%; under setting [4], 95.24 ± 0.15%; under setting [5], 87 ± 2.5%; under setting [6], 90.59 ± 0.73%.
For the substance “MSSILPFTPPIVKRLLGWKKGEQNGQEEKWCEKAVKSLVKKLKKTGQLDELEKAITTQNVNTKCITIPRSLDGRLQVSHRKGLPHVIYCRLWRWPDLHSHHELRAMELCEFAFNMKKDEVCVNPYHYQRVETPVLPPVLVPRHTEIPAEFPPLDDYSHSIPENTNFPAGIEPQSNIPETPPPGYLSEDGETSDHQMNHSMDAGSPNLSPNPMSPAHNNLDLQPVTYCEPAFWCSISYYELNQRVGETFHASQPSMTVDGFTDPSNSERFCLGLLSNVNRNAAVELTRRHIGRGVRLYYIGGEVFAECLSDSAIFVQSPNCNQRYGWHPATVCKIPPGCNLKIFNNQEFAALLAQSVNQGFEAVYQLTRMCTIRMSFVKGWGAEYRRQTVTSTPCWIELHLNGPLQWLDKVLTQMGSPSIRCSSVS [SMAD3]”, the percent infected was 77.4 ± 2.3% under setting [1]; 40.7 ± 1.2% under setting [2]; 93.92 ± 0.8% under setting [3]; 94.56 ± 0.45% under setting [4]; 80.2 ± 1.3% under setting [5]; 88.2 ± 1.7% under setting [6].
With “MNTIVFNKLSGAVLFEDGGASERERGGRPYSGVLDSPHARPEVGIPDGPPLKDNLGLRHRRTGARQNGGKVRHKRQALQDMARPLKQWLYKHRDNPYPTKTEKILLALGSQMTLVQVSNWFANARRRLKNTVRQPDLSWALRIKLYNKYVQGNAERLSVSSDDSCSEDGENPPRTHMNEGGYNTPVHHPVIKSENSVIKAGVRPESRASEDYVAPPKYKSSLLNRYLNDSLRHVMATNTTMMGKTRQRNHSGSFSSNEFEEELVSPSSSETEGNFVYRTDTLENGSNKGESAANRKGPSKDDTYWKEINAAMALTNLAQGKDKLQGTTSCIIQKSSHIAEVKTVKVPLVQQF [MKX]”, the percent infected is, setting by setting: under setting [1], 95 ± 2.1%; under setting [2], 82.42 ± 0.67%; under setting [3], 95.17 ± 0.2%; under setting [4], 92.86 ± 0.56%; under setting [5], 79 ± 1.7%; under setting [6], 86.15 ± 0.099%.
